Measured values taken from patent US20220403023A1.

Key:
[1] = molecular target: CD47 on human origin tumor cells (human) (UniProt Q08722); assay: FACS on 293F cells
[2] = molecular target: CD47 on human origin tumor cells (human) (UniProt Q08722); assay: FACS on A204 cells
[3] = molecular target: CD47 on human origin tumor cells (human) (UniProt Q08722); assay: FACS on A375 cells
[4] = molecular target: CD47 on human origin tumor cells (human) (UniProt Q08722); assay: FACS on A431 cells
[5] = molecular target: CD47 on human origin tumor cells (human) (UniProt Q08722); assay: FACS on FaOb cells
[6] = molecular target: CD47 on human origin tumor cells (human) (UniProt Q08722); assay: FACS on HT29 cells
[7] = molecular target: CD47 on human origin tumor cells (human) (UniProt Q08722); assay: FACS on BT474 cells
[8] = molecular target: CD47 on human origin tumor cells (human) (UniProt Q08722); assay: FACS on HepG2 cells
[9] = molecular target: CD47 on human origin tumor cells (human) (UniProt Q08722); assay: FACS on Hut78 cells
[10] = molecular target: CD47 on human origin tumor cells (human) (UniProt Q08722); assay: FACS on Ramos cells
[11] = molecular target: CD47 on human origin tumor cells (human) (UniProt Q08722); assay: FACS on BxPC-3 cells
[12] = molecular target: CD47 on human origin tumor cells (human) (UniProt Q08722); assay: FACS on CaLu-6 cells
[13] = molecular target: CD47 on human origin tumor cells (human) (UniProt Q08722); assay: FACS on Jurkat.268 cells
[14] = molecular target: CD47 on human origin tumor cells (human) (UniProt Q08722); assay: FACS on MDA-MB-453 cells
4-1B8.his = assay: non-specific binding ELISA, protein coated 1 µg/mL
CD147.his = assay: non-specific binding ELISA, protein coated 1 µg/mL
CD22.his = assay: non-specific binding ELISA, protein coated 1 µg/mL
CD3.his = assay: non-specific binding ELISA, protein coated 1 µg/mL
CD40.his = assay: non-specific binding ELISA, protein coated 1 µg/mL
CTLA4.his = assay: non-specific binding ELISA, protein coated 1 µg/mL
FGFR.his = assay: non-specific binding ELISA, protein coated 1 µg/mL
Factor Eight = assay: non-specific binding ELISA, protein coated 1 µg/mL
[15] = molecular target: HER3.his (Homo sapiens (Human)) (UniProt P21860); assay: non-specific binding ELISA, protein coated 1 µg/mL
HSA. = HSA. (UniProt P02768); assay: non-specific binding ELISA, protein coated 1 µg/mL
OX40.his = assay: non-specific binding ELISA, protein coated 1 µg/mL
[16] = molecular target: PD-1.his (Homo sapiens (Human)) (UniProt Q15116); assay: non-specific binding ELISA, protein coated 1 µg/mL
VEGF.his = assay: non-specific binding ELISA, protein coated 1 µg/mL
VEGFR2.his = assay: non-specific binding ELISA, protein coated 1 µg/mL
[17] = molecular target: CD47 on human red blood cells (human) (UniProt Q08722); assay: FACS on human red blood cells, goat anti-human IgG-Fc PE; blank (Neg) 232
[18] = molecular target: human CD47 on engineered CHO-K1 cells (human) (UniProt Q08722); assay: competition FACS against human SIRPα-His (1 µg/mL) on CHOK1-huCD47 cells; ligand only 1086
[19] = molecular target: human CD47 ECD protein (human) (UniProt Q08722); assay: ELISA on plate-coated human CD47 ECD (1 µg/mL), goat anti-human IgG-Fc-HRP, OD450; blank (Neg) 0.102
[20] = molecular target: human CD47 ECD protein (human) (UniProt Q08722); assay: competition ELISA against human SIRPα-His (1 µg/mL) on plate-coated human CD47 ECD; ligand only 1.438
[21] = molecular target: human CD47 on engineered CHO-K1 cells (human) (UniProt Q08722); assay: FACS on CHO-K1 cells expressing human CD47 (CHOK1-huCD47), goat anti-human IgG-Fc PE; blank (Neg) 34.8
[22] = molecular target: cynomolgus monkey CD47 on engineered CHO-K1 cells (cynomolgus monkey); assay: FACS on CHO-K1 cells expressing cynomolgus CD47 (CHOK1-cynoCD47), goat anti-human IgG-Fc PE; blank (Neg) 47.6

Sequence of PD-1.his (Homo sapiens (Human)) (Q15116 25-170 limits assumed): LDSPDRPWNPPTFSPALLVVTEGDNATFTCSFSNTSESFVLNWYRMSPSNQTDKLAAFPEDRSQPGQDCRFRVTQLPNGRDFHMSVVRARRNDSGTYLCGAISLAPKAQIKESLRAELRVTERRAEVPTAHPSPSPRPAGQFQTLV
Sequence of CTLA4.his (P16410 36-161): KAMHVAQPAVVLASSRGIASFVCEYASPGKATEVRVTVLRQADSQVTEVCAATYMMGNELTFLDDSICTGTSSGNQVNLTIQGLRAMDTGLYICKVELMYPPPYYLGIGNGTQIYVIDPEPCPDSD
Sequence of OX40.his (P43489 29-214): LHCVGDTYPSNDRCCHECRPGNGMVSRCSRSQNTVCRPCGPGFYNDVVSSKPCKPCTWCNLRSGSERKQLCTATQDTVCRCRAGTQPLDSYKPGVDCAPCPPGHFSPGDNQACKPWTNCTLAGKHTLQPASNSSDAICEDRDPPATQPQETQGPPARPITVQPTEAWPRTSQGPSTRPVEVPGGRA
Sequence of CD40.his (P25942 21-193): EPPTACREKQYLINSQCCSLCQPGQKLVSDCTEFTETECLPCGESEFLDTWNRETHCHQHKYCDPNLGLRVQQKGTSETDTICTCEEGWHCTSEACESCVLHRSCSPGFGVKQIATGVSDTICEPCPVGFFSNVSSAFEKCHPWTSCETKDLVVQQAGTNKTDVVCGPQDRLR
Sequence of 4-1B8.his (Q07011 24-186): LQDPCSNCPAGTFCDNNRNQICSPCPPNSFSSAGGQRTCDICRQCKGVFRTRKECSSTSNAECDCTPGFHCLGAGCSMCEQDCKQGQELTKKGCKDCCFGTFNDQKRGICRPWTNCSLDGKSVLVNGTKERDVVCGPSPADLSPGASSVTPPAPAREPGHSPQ
Sequence of VEGFR2.his (P35968 20-764): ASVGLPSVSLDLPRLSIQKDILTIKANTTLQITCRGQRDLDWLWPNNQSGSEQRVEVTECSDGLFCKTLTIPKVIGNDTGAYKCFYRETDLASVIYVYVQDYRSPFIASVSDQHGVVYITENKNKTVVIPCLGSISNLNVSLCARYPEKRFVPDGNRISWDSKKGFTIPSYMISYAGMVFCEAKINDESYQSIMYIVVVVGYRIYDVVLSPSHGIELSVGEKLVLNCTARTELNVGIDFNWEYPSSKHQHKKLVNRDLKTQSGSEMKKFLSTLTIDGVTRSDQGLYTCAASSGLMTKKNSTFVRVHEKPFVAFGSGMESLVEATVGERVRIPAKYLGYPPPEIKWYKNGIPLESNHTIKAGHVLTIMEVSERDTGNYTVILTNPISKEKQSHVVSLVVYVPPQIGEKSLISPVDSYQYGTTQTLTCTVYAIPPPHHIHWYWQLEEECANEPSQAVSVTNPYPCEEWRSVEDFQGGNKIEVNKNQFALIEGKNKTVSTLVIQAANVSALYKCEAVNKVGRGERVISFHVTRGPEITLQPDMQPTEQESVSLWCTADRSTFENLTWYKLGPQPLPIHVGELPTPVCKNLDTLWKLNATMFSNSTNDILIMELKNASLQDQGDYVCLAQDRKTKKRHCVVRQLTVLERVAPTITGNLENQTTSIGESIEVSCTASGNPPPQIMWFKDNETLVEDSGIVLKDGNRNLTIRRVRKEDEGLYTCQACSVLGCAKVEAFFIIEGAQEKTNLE

Row | Substance | MFI [1] | MFI [2] | MFI [3] | MFI [4] | MFI [5] | MFI [6] | MFI [7] | MFI [8] | MFI [9] | MFI [10] | MFI [11] | MFI [12] | MFI [13] | MFI [14] | ELISA-OD450 (4-1B8.his) | ELISA-OD450 (CD147.his) | ELISA-OD450 (CD22.his) | ELISA-OD450 (CD3.his) | ELISA-OD450 (CD40.his) | ELISA-OD450 (CTLA4.his) | further results
1 | hIgG4L Isotype control (antibody) | 28.7 | 42.4 | 49.5 | 251 | 429 | 45.7 | 19.1 | 27.3 | 50.2 | 68.4 | 110 | 88.4 | 64.3 | 28.3 | 0.0463 | 0.0443 | 0.0467 | 0.0518 | 0.205 | 0.0571 | ELISA-OD450 (FGFR.his): 0.137; ELISA-OD450 (Factor Eight): 0.0481; ELISA-OD450 [15]: 0.0445; ELISA-OD450 (HSA.): 0.335; ELISA-OD450 (OX40.his): 0.051; ELISA-OD450 [16]: 0.227; ELISA-OD450 (VEGF.his): 0.0463; ELISA-OD450 (VEGFR2.his): 0.0441
2 | IgG4 isotype control (antibody) |  |  |  |  |  |  |  |  |  |  |  |  |  |  |  |  |  |  |  |  | Max MFI [17]: 238 MFI; Max Inhibit% [18]: 12.2%; Min MFI [18]: 953 MFI; Max OD [19]: 0.123 OD450; Max Inhibit% [20]: 21.2%; Min OD [20]: 1.13 OD450; Max MFI [21]: 66 MFI; Max MFI [22]: 97.9 MFI
3 | hIgG4K Isotype control (antibody) | 56.4 | 34.7 | 22.8 | 39.5 | 36.2 | 44.3 | 20.8 | 32.2 | 49.7 | 74.4 | 42.9 | 23.3 | 36.9 | 32.2 | 0.0463 | 0.0424 | 0.0451 | 0.0479 | 0.213 | 0.0562 | ELISA-OD450 (FGFR.his): 0.133; ELISA-OD450 (Factor Eight): 0.181; ELISA-OD450 [15]: 0.044; ELISA-OD450 (HSA.): 0.322; ELISA-OD450 (OX40.his): 0.0508; ELISA-OD450 [16]: 3.71; ELISA-OD450 (VEGF.his): 0.0452; ELISA-OD450 (VEGFR2.his): 0.0432
